According to US11802878B2, “Protein sequencing method and reagents” (The Governing Council of the University of Toronto, priority 2009, dated 2023):

Experiments:
[1] = system: immobilized biotinylated peptide, N-terminal amino acid I (X-SDGMFTAGSLIGK(biotin)); assay: Phage ELISA, binding to immobilized peptide, N-terminal I
Experimental: (§1) Given the discovery that the specificity pocket library was functionally robust, selections against synthetic peptide ligands were carried out using this library. The specificity pocket library was selected against 20 biotinylated peptides, each with a different N-terminal residue atop a common leader sequence (X-SDGMFTAGSLIGK(biotin)) (SEQ ID NO: 4). The peptides were immobilized individually to the bottom wells of a microtiter plate. […] Consequently, ClpS mutant variants that prefer other residues in addition to the ligand ‘bait’ would bind those competing peptides in solution and simply be washed away. Only selective variants that bound to the immobilized target(s) were amplified during each subsequent round of selection.
(§2) To evaluate the specificity and selectivity of individual clones, both wild-type ClpS and the selected variants' binding to each of the biotinylated peptides independently were tested. The same approach was also used to monitor the progress of the selections and to prioritize particular pools of phage for further investigation.
(§3) Promising single clones were picked from the selection pools and their specificity was evaluated using the same panel of biotinylated peptides and various amounts of phage supernatant. […] Accordingly, Variant 1 represents a selective N-terminal amino acid capture probe for tryptophan useful for the sequencing methods described herein. Variant 1 also represents a useful scaffold for performing further generation and selection of variants with desirable properties for use as additional N-terminal amino acid capture probes.
(§4) The selection and ELISA protocols are very similar. Briefly, each well of a 96-well Maxisorp plate was coated overnight at 4° C. with 100 μl of 10 μg/ml neutravidin in PBS, or 1:500 dilution of anti-FLAG antibody. […]
(§5) For the ELISA readouts, 100 μl of pH adjusted phage supernatant or polyethylene glycol (PEG) precipitated concentrated phage was added to appropriate wells and allowed to bind for 1 hour at 4° C. […] The reaction was stopped by addition of 90 μl of 1M H3PO4 and the absorbance at A450 nm was read.

[2] = system: immobilized biotinylated peptide, N-terminal amino acid H (X-SDGMFTAGSLIGK(biotin)); assay: Phage ELISA, binding to immobilized peptide, N-terminal H
Experimental: as §1, §2, §3, §4, §5

[3] = system: immobilized biotinylated peptide, N-terminal amino acid A (X-SDGMFTAGSLIGK(biotin)); assay: Phage ELISA, binding to immobilized peptide, N-terminal A
Experimental: as §1, §2, §3, §4, §5

[4] = system: panel of 20 biotinylated peptides, each with a different N-terminal residue (X-SDGMFTAGSLIGK(biotin)); assay: Phage ELISA specificity profile over the panel of biotinylated peptides; assay type: binding; conditions: phage displayed; result in words
Experimental: as §1
To evaluate the specificity and selectivity of individual clones, both wild-type ClpS and the selected variants' binding to each of the biotinylated peptides independently were tested. […]
Promising single clones were picked from the selection pools and their specificity was evaluated using the same panel of biotinylated peptides and various amounts of phage supernatant. […]
as §5

[5] = system: immobilized biotinylated peptide, N-terminal amino acid G (X-SDGMFTAGSLIGK(biotin)); assay: Phage ELISA, binding to immobilized peptide, N-terminal G
Experimental: as §1, §2, §3, §4, §5

[6] = system: immobilized biotinylated peptide, N-terminal amino acid R (X-SDGMFTAGSLIGK(biotin)); assay: Phage ELISA, binding to immobilized peptide, N-terminal R
Experimental: as §1, §2, §3, §4, §5

[7] = system: immobilized biotinylated peptide, N-terminal amino acid F (X-SDGMFTAGSLIGK(biotin)); assay: Phage ELISA, binding to immobilized peptide, N-terminal F
Experimental: as §1, §2, §3, §4, §5

[8] = system: immobilized biotinylated peptide, N-terminal amino acid E (X-SDGMFTAGSLIGK(biotin)); assay: Phage ELISA, binding to immobilized peptide, N-terminal E
Experimental: as §1, §2, §3, §4, §5

B1: ClpS WT: truncated wildtype E. coli ClpS polypeptide, 84 amino acids, SEQ ID NO: 1, displayed on phage (protein, listed as Escherichia coli)
chain: KPPSMYKVILVNDDYTPMEFVIDVLQKFFSYDVERATQLMLAVHYQGKAICGVFTAEVAETKVAMVNKYARENEHPLLCTLEKA
modifications: phage display
phage ELISA binding signal ([1]; N-terminal I, phage 10X, sub Fab): −0.16
phage ELISA binding signal ([1]; N-terminal amino acid I, Table 1): −0.016
phage ELISA binding signal ([2]; N-terminal H, phage 10X, sub Fab): −0.03
phage ELISA binding signal ([2]; N-terminal amino acid H, Table 1): −0.03
phage ELISA binding signal ([3]; N-terminal A, phage 10X, sub Fab): −0.29
phage ELISA binding signal ([3]; N-terminal amino acid A, Table 1): −0.29
binding specificity / preference for N-terminal amino acids [4]: clear preference for Leu, Tyr, Phe and, more weakly, Trp peptides
phage ELISA binding signal ([5]; N-terminal G, phage 10X, sub Fab): −0.04
phage ELISA binding signal ([5]; N-terminal amino acid G, Table 1): −0.04
phage ELISA binding signal ([6]; N-terminal R, phage 10X, sub Fab): 0.13
phage ELISA binding signal ([6]; N-terminal amino acid R, Table 1): 0.13
phage ELISA binding signal ([7]; N-terminal F, phage 10X, sub Fab): 1.81
phage ELISA binding signal ([7]; N-terminal amino acid F, Table 1): 1.81
phage ELISA binding signal ([8]; N-terminal E, phage 10X, sub Fab): −0.26
phage ELISA binding signal ([8]; N-terminal amino acid E, Table 1): −0.26
